# According to the nanobody polyreactivity screen of Harvey et al. (2022):
# Test: yeast display, Sf9 membrane polyspecificity reagent, FACS + sequencing; frameworks hold sequencing errors
# Method in brief: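 A synthetic nanobody library was expressed on Saccharomyces cerevisiae BJ5465 by galactose induction for 36–48 hours. The library was stained for 1 hour at 4 °C with 10% biotinylated, detergent-solubilized Sf9 membrane reagent and enriched with streptavidin microbeads before FACS. Low and high (top ~1%) gates were set on anti-HA fluorescence for expression and streptavidin fluorescence for reagent binding, and each polyreactivity label reflects the gate of origin.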
row,Sequence,polyreactivity (PSR sort gate)
1,QVQLVESGGGLVQAGGSLRLSCAASGRTFRRYAMGWYRQAPGKERELVAASSRGANTNYADSVKGRFTISRDNAKNTVYLQMNSLKPEDTSVYYGNAYGIDTGDYWGQGTKVTVSS,high polyreactivity
2,QVQLVESGGGLVQAGGSLRLSCAASGSTFVYYAMGWYRQAPGKEREFVAAISISTGSTYYADSVKGRFTISRDNAKNTVYLQMNSLKPEDTAVYYCAVDWFLGGYDDLDYWGQGTQVTVSS,low polyreactivity
3,QVQHVESGGGLVQAGGSLRLSCAASGSTFDDNVMGWYRQAPGKERELVAAISSSGGSTYYADSVKGRFTISRDNAKNTVYLQMNSLKPEDTAVYYCNAVYFGLWGYYARRSYNYWGQGTQVTASS,low polyreactivity
4,QVQLVESGGGLVQAGGSLRLSCAASGSIFVNNAMGWYRQAPGKERELVAAISSRSSRTFYADSVKGRFTISRDNAKISVYFHMNSLKPVDTGVYYWAVKKRSPHGDYCGQGTQVTVSS,high polyreactivity
5,QVQLVESGGGLVQAGGSLRLSCAASGSIFALYAMGWYRQAPGKERELVAAISRRGGRTYYADSVKGRFTISRDNAKNTVYLQMNSLIPEDTAVYYCNARGYNVPHPNRYDYWGQGTQVTVSS,high polyreactivity
6,QVQLVESGGGLVQAGGSLRLSCAASGSIFEPYAMGWYRQAPGKERELVAAISSDGTTNYADSVKGRFTISRDNAKNTVYLQMNSLKPEDTAVYYCAADVFNWGYYYWGQGTQVTVSS,low polyreactivity
7,QVQLVESGGGLVQAGGSLRLSCVASGRTFSRYAMGWYRPAPGKERELVAAISRRGGSTFYADSVKGRFTISRDNAKNTVYLQMNSLKPEDTAVYYCAAGYITWGSGNWVVTPYDYWGQGTQVTVSS,high polyreactivity
8,QVQLAESGGALVQAGCSLRLSCSASGYTSAKNVMGWYIQAPGKERELVAAISRSGGRTYYADSVKGRFTISRDNAKNSVYLQMNSLKPEDTAVYYCAARSATNHADDYYYWGQGTQVTVSS,high polyreactivity
9,QVQLVESGGGLVQAGRSLRLSCAASGITFGRNTMGWYRQAPGKERELVAAIDSGGNTYADSVKGRFTISRDNAKNTVYLQMNSLKPEDTAVYYCAVDGGEFSSYGYWGQGTQVSVSS,low polyreactivity
10,QVQLVESGGGLVQAGGSLRLSCAASGRIFSYYAMGWYRQAPGKERELVATINSGGSTNYADSVKGRFTISRDNAKNTVYLQMNSLKPEDTAVYYCAASPVWWYDYWGQGTQVTVSS,low polyreactivity
11,QVQLVESGGGLVQAGGSLRLSCAASGRTLGGYAMGWYRQAPGKERELVASITARGGSTYYADSVKGRFTISRDNAKNTVYLQMNSLKPEDTAVYYCATYFARGYNSWGQGTQVTVSS,high polyreactivity
12,QVQLVESGGGLVQAGGSLRLSCAASGRIFRVYAMGWYSQAPGKERELVASISSGGSTNYADSVKGRFTISRDNANNTVYLQMNSLKPEDTAVYYCAADRSGSFYKLDYWGQGTHVTVSS,low polyreactivity
13,QVQLVESGGGLVQAGGSLRLSCAASGRIFGTHDMGWYRQAPGKESELVAAIRATSGSTYYADSVKGRFTISRDNAKNTVYLQMYSLKPEDTAVYYCAAEIWRYNSYIKYWHRVDYWGQGTQVTVSS,high polyreactivity
14,QVQLVESGGGLVQAAGSLRLSCAASGRISRTNAMGWYRQAPGKERQLVATINSGTGTNYADSVKGRFTISRDNAKNTVYLQMNSLKPEDTEVYYCAARYRYWPKYYPVSYRYDYWGQGTQVTVSS,low polyreactivity
15,QVQLVESAVGLVQAGGSLRLSCDASGRSYYTYAMGWYRQAPGKERELVATITDGGSTYYAESVKGRFTISRDNAKNTVYLQMNSLKPEDTAVYYCAADAYQWYDWGQGTQVTVSS,low polyreactivity
16,QVQLVESGGGLVQAGCSLRLSSAASGFTFAYYVMGWYRQAPGKERELVAAISISGGRTYYADSVKGRFTISRDNEKNSVYLQMNRLKPEETAVYYCAADRRTDGHDYWGQGSQVTVSS,high polyreactivity
17,QVQLVESGGGLVQAGGSLRLSCAASGSTFRVYAMGWYRQAPGKERELVAAISGSGGSTYYADSVKGRFTISRDNAKNTVSLQMNSMKPEDTAVYYCAARSWYTEYYWGQGTQVTVSS,high polyreactivity
18,QVQLVESGGGLVQAGGSLLLICAASGRTFPYNAMGWYRQAPGKEREFVAAISVGGGSTYADSVKGRFTISRDNAKNTVYLQMNSLKPEDTAVYYCAAAYTKLYYYWGQGTQVTVSS,low polyreactivity
19,QVQLVESGGGLVQAGGSLRLSCADSGLIFTQYAMGWYIQAPGKEREFVAAITWNGGRTYYADSVKGRFTISRDNAKNTVYLQMNSLKPEDTAVYYCATRNTRFHLDYWGQGTQVTVSS,high polyreactivity
20,QVQLVESGGGLVQAGGSLRLSCAASGSTLLTYTMGWYRQAPGKESELVASITTSGGSTYYADSVKGRFTISRDNAKNTVYLQMNSLKPEDTAVYYWGQGTQVTVSS,low polyreactivity
21,QVQLVESGGGLVQAGGSLRLSCAASGSTFSYNAMGCYRQAPGKESELVAAISRGDVSTYYADSVKGRFTISRDNAKNTVYLQMNSLKPEDTAVYYCAAYWYGSQYKWRYDYWGQGTQVTVSS,low polyreactivity
22,QVQLVESGGGLVQAGGSLRLSCAASGRTFGRYAMGWYRQAPGKEREFVASISRRGGSTNYADSVKGRFTISRDNAKNTVYLQMNSLKPEDTAVYYCAKRFTLPLSEYDYWGQGTQVTVSS,high polyreactivity

row,Sequence,polyreactivity (PSR sort gate)
1,QVQLVESRGGLVQAGGSLRISCAASGSTFVAYAMGWYRQAPAKERELVAAISYSGGSTYYADSVKGRFTISRDYAKNTVSLQMNCLKPEDTAVYYCAAEWSRHYYYGPRYDYWGQGTQVSVSS,low polyreactivity
2,QVQLVESGGGLVKAGGSLRLRCAAAGLILYPYAMGWYRQAPGKESELVAAITSDGSTYYADSVKGRFTISRVNAKNTVYLQMNSLKQEDTAVYYCAVVVAYFDDDYGLSWFYEYDYWGQGTQVTVSS,low polyreactivity
3,PVQLVESGGVLVQAGGSLRLSCAASGRTFSYYAMGWYRQAPGKERELVADNNCSGTSTDYADSVKGRFTISRDNAKNTVYLQMHSLKPEDTEVYYCPAYLIVYYGDETPYASLHDYWGQGTQVSVSS,low polyreactivity
4,QVQLVESGGGLVQAGGSLRLSCAASGRTFGIYAMGWYRQAPGKERELVASISWSGGRTYYADSVKGRFTISRDNAKNTVYLQMNSLIPEDTAVYYCAAYGVYYPRSWQYFDWYGYWGQGTQVTVSS,high polyreactivity
5,QVQLVESGGGLVQAGGSLRLSCAASGSILSFNAMGWYRQAPGKERELVAAISRGGSTNYADSVKGRFTISRDNAKNTVYLQMNSLKPEDTAVYYCAAVQYRYSTRWARRAYDYWGQGTQVTVSS,high polyreactivity
6,QVQLVESGGGLVQAGGSLRLSCAASGRIFGPYAMGWYRQAPGKERELVASITRSGGRTYYADSVKGRFTISRDNAKNTVYLQMNSLKPEDSAVYYCAAGGFSKSYYYWGQGSQVTVSS,high polyreactivity
7,QVQLVESGGGLVQAGGSLRLSCAASGRIFGGYAMGWYRQAPGKERELVAAITQSGGSTYYADSVKGRFTISRDNAKNTVYLQMNSLKPEDTAVYYCATYAWYIFGYWGQGTQVTVSS,low polyreactivity
8,QVQLVESGGGLVQAGGSLRLSCAASGSTIEPYAMGWYRQAPGKEREFVAVITLSGGTTYYADSVKGRFTISRDNAKNTVYLQMHSLKPEDTAVYYCNAQYRKARVDEYYYWGQGTQVTVSS,high polyreactivity
9,QVQLVETGGGLVQAGVSLRLSCAASGRTWGYDMGWYRQAPGKERELVAAIRNGASTYYADSVKGRFTISRDNAKNTVYLQMNSLKPEDTAVYYCAADYTVRVVATYDYWGQGTQVTVSS,low polyreactivity
10,QVQLVESGGGLFQEGGSLRLSCAASGRTLRYYAMGWYRQAPGKVRELVAAISSGGTTNYADSVKGRFTISRDNAKNTVYFQMKSLKPEDTAVYYFAASYRRFRFSHYDYWGQVTQVTVSS,high polyreactivity
11,QVQLVESGGGLVQAGGSLRLSCAASGSTSVKYAMGWYRQAPGKERELVAAIRKRGDSTYYADSVKGRFTISRDNAKYSVYLQMNSLKAEDTAVYYCAAQYLRGRGYWGQGTQVTVSS,low polyreactivity
12,QVQLVESGGGLVQAGGSLRLSCAASGSIFVPYAMGWYRQAPGKERELVAVIRYRGGTTYYADSVKGRFTLSRDNAKNTVYLQMNSLKPEDTAVYYCEASARRYPPAAGVPYRYDYWGQGTQVTVSS,high polyreactivity
13,QVQLVESGGGLVQAGGSLRLSCAASGITFFWYDMGWYRQAPGKERELVASISSGGTTSYADSVKGRFTISRDNAKNTVYLQMNSLKPEDTAVYYCAATHWNRWHFDYWGQGTQVTVSS,low polyreactivity
14,QVQIVESGGGLVQARGSLRLSFAASGFTFSHYAMGWYRQAPGKERELVAAISASGGRTYFADSVKGRFTISRDNAKNTVYVQMNSLKPEDTAVYYCAAKLYDCGGRYWYVYWGQGTQVTVSS,high polyreactivity
15,QVQLVESGAGLVQAGGSLRLSCAASGNIFRFYAMGWYRQAPGKERELVAAISYNGGRTYYADSVKGRFTISRDNAKNTVYLQMNILKPEDTAVYYCNAAGRDDAYDYWGQGTQVTVAS,high polyreactivity
16,QVQLVESGGGLVQAGGSLRLSSAGSGSTFIIYAMGWYRQAPGKERELVAAISWSGGSTYYADSVKGRFTISRDNAKNTVYLQMNSLKPEDTEVYYWAVVYRTRWSDYDYWGQGTQVTVSS,low polyreactivity
17,QVQLVESGGGLVQAGGSLRLSCAASGSIFGQYTMGWYRQAPGKERELVAVISTRGGSTYYADSVKGRFTISRDNAKNTVYLQMNSLKPEDTAVYYCAASAFRGREMDYWGQGTQVTVSS,low polyreactivity
18,QDQLVESGGGLVQAGGSLRLSCAASGSIFSVYVMGWYRQAPGKERELVATISSGGGTYYADSVKGRFTISRDNAKNTVYLQMNSLKPEDTAVYYCNADWDDWKGDYWGQGTQVTVSS,low polyreactivity
19,QVQLVESGGGLVQAGGSLRLSCAASGSIFAVYAMGRYRQAPGKERELVASISRTGTTNYADSVKGRFTISRDNAKNTVYLQMNSLKPEDTAVYYCNADAYLYYKYHWGFTFYQYEYWGQGTQVTVSS,low polyreactivity
20,QVQLVESGGGLVQAGGSLRLSCAASGSTFGRYTMGWYRQAPGKERQLVAAISSSGGGTYYADSVKGRLTISRDNAKNTVYLQMNSLKPEDTAVYYCAALGSRRYTRYGLTGFDYWGQGTQVTVSS,high polyreactivity
21,QVQLVESGGGLVQAGGSLRLSCASSGSTFYPNAMGWYRQAPGKERELVAAISRSGGSTYYADSVKGRFTISRDNAKNTVYLQMNSLKPEDTGVYYCAADGRSPSRYDYWGQGTQVTVSS,low polyreactivity
